Our source for the fold increase of ELISA signal over CD74 peptide or no-peptide wells and Kd values is paper doi:10.1101/2021.09.07.459239.

In assay [1] the target is CD80 cytosolic tail peptide (20-mer). In words: ELISA. (In an ELISA, binding on a coated surface is turned into a signal by an enzyme label.)
Assay [2] deals with CD86 cytosolic tail peptide (20-mer). Nature of the assay: ELISA.
Assay [3] has as its target rF2-Nef protein (HIV-1 Subtype C), full length wild type (HIV-1 subtype C (F2 isolate)). In words: MST.

With “rF2-Nef protein (HIV-1 Subtype C), full length wild type (natural protein)”, the fold increase of ELISA signal over CD74 peptide or no-peptide wells in assay [1] and in assay [2] was 4 fold in each case.

B1: CD80 cytosolic tail peptide (20-mer) (peptide)
peptide: PRCRERRRNERLRRESVRPV
In assay [3], B1 came in with an equilibrium dissociation constant (Kd) of 27 µM.

B2: CD86 cytosolic tail peptide (20-mer) (peptide)
peptide: LWKWKKKKRPRNSYKCGTNT
In assay [3], B2 showed a Kd of 0.112 µM.

Broadly, the Kd is the equilibrium constant for the complex coming apart.
